Literature values as cited in patent publication US9421247B2, “Biodegradable nanoparticles as novel hemoglobin-based oxygen carriers and methods of using the same” (Vindico NanoBio Technology Inc., priority 2010, dated 2016).

free hemoglobin: cell-free hemoglobin infused into animals
adverse physiological effects on infusion/transfusion into animals: significant vasoconstriction and kidney damage

PolyHeme™: commercial acellular HBOC (Northfield Lab, Evanston, Ill., USA)
adverse physiological effects on infusion/transfusion into animals: induce vasoconstriction
